In US20120003694A1 (SYRACUSE UNIVERSITY, published 2012):
Read-outs that look alike come from different tables or passages of the source.

B1: pb2(65)-Ba (barnase fused to the first 65 amino acids of the N-terminal region of pre-cytochrome b2) (other)
chain: MLKYKPLLKISKNCEAAILRASKTRLNTIRAYGSTVPKSKSFEQDSRKRTQSWTALRVGAILAATAQVINTFDGVADYLQTYHKLPDNYITKSEAQALGWVASKGNLADVAPGKSIGGDIFSNREGKLPGKSGRTWREADINYTSGFRNSDRILYSSDWLIYKTTDHYQTFTKIR
notes: range 1-65;domain: folded ribonuclease barnase (Ba), 110-residue
B2: pb2(95)-Ba (barnase fused to the first 95 amino acids of the N-terminal region of pre-cytochrome b2) (other)
chain: MLKYKPLLKISKNCEAAILRASKTRLNTIRAYGSTVPKSKSFEQDSRKRTQSWTALRVGAILAATSSVAYLNWHNGQIDNEPKLDMNKQKISPAEAQVINTFDGVADYLQTYHKLPDNYITKSEAQALGWVASKGNLADVAPGKSIGGDIFSNREGKLPGKSGRTWREADINYTSGFRNSDRILYSSDWLIYKTTDHYQTFTKIR
notes: range 1-95;domain: folded ribonuclease barnase (Ba), 110-residue
B3: FhuA ΔC/Δ4L protein nanopore (engineered Escherichia coli ferric hydroxamate uptake component A lacking the cork domain and loops L3, L4, L5 and L11) (other)
chain: LKEVQFKAGTDSLFQTGFDFSDSLDDDGVYSYRLTGLARSANAQQKGSEEQRYAIAPAFTWRPDDKTNFTFLSYFQNEPETGNSEGSTYSRNEKMVGYSFDHEFNDTFTVRQNLRFAENKTSQNSVYGYGVNSEGSYLARKYVVDDEKLQNFSVDTQLQSKFATGDIDHTLLTGVDFMRMRNDINAWFGYNSEGSGPYRILNKQKQTGVYVQDQAQWDKVLVTLGGRYDWADQESLNRVAGTTDKRDDKQFTWRGGVNYLFDNGVTPYFSYSESFEPSSQVGKDGNIFAPSKGKQYEVGVKYVPEDRPIVVTGAVYNLTKTNNLMADPEGSFFSVEGGEIRARGVEIEAKAALSASVNVVGSYTYTDAEYTTDTTYKGNTPAQVPKHMASLWADYTFFDGPLSGLTLGTGGRYTGSSYGDPANSFKVGSYTVVDALVRYDLARVGMAGSNVALHVNNSEGSQVVATATFRF
B4: pb2(35)-Ba (barnase fused to the first 35 amino acids of the N-terminal region of pre-cytochrome b2) (other)
chain: MLKYKPLLKISKNCEAAILRASKTRLNTIRAYGSTAQVINTFDGVADYLQTYHKLPDNYITKSEAQALGWVASKGNLADVAPGKSIGGDIFSNREGKLPGKSGRTWREADINYTSGFRNSDRILYSSDWLIYKTTDHYQTFTKIR
notes: range 1-35;domain: folded ribonuclease barnase (Ba), 110-residue; also called pb2(35)-Ba/35

Columns and labels:
[1] = molecular target: B3; experiment: single-channel recording at a higher applied voltage (+120 mV)
[2] = molecular target: B3; experiment: single-channel recording at a higher applied voltage (+100 mV)
[3] = molecular target: T1, HIV-1 nucleocapsid protein (NCp7) (HIV-1, UniProt P04591 378-432); experiment: single-channel electrical recording, planar lipid bilayer, analyte added trans, 1 M KCl, 10 mM potassium phosphate, pH 7.4
T1 construct: domain: nucleocapsid protein (NCp7), 55 amino acids; also called NCp7/55

[4] = molecular target: B4; experiment: as above
[5] = molecular target: B4

B1
partition time at +120 mV [1]: ~12 ms | partition time at +100 mV [2]: ~4 ms

B2
partition time at +120 mV [1]: ~12 ms | partition time at +100 mV [2]: ~4 ms

B3
koff [3]: 9000 s⁻¹ | kon [3]: 2e+06 M⁻¹ s⁻¹ | kon [4]: 180000 M⁻¹ s⁻¹ | kon [5]: 110000 M⁻¹ s⁻¹

B4
partition time at +120 mV [1]: ~12 ms | partition time at +100 mV [2]: ~4 ms
